Article PMC10942606

Columns and labels:
Experiment in all cases: MST
Pcf1 WT;Pcf2;Pcf3 = molecular target: T1, Pcf1 WT;Pcf2;Pcf3 (Schizosaccharomyces …, UniProt Q1MTN9;O13985;Q9Y825 1-544;1-512;1-408, ||)
T1 sequence 1: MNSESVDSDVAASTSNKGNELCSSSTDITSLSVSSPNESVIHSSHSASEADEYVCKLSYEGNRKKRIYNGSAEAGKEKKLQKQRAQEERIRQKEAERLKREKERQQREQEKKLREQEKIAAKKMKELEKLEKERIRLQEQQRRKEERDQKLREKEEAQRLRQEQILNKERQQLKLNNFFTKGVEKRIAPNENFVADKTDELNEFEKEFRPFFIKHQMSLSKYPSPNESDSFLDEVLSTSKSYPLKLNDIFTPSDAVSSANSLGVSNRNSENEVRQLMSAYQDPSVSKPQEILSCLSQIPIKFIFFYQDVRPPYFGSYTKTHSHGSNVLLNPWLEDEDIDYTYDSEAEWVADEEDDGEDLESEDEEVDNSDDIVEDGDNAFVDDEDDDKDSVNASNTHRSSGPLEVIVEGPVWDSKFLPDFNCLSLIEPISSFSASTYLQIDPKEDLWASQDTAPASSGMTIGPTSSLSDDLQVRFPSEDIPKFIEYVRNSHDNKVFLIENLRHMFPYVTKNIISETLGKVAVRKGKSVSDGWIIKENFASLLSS
T1 sequence 2: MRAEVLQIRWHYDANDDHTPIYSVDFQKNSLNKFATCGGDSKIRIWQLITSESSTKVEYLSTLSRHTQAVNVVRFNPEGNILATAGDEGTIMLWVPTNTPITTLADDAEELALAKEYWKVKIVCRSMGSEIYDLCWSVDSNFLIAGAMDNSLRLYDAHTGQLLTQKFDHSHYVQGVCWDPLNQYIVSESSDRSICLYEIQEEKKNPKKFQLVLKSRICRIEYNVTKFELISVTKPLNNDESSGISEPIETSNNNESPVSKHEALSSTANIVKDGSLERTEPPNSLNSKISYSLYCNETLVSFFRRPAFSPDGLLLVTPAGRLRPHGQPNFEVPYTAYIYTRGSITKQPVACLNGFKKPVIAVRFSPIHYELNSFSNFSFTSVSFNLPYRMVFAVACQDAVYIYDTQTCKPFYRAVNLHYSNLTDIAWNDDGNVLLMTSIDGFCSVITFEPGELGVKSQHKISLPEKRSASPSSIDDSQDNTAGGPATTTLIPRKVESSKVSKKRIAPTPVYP
T1 sequence 3: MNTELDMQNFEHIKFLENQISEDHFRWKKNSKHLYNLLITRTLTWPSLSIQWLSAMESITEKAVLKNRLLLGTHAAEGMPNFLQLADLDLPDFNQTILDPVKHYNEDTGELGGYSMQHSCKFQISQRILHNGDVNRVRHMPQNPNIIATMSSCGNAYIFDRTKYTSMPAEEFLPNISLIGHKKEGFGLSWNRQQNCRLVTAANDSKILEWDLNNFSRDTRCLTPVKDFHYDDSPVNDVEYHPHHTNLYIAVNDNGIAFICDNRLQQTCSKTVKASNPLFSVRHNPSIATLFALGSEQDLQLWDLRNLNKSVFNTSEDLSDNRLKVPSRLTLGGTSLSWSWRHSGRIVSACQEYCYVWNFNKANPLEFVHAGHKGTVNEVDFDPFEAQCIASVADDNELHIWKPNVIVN

Pcf1-ΔWHD;Pcf2;Pcf3 = molecular target: T2, Pcf1-ΔWHD;Pcf2;Pcf3 (Schizosaccharomyces …, UniProt Q1MTN9;O13985;Q9Y825 1-470;1-512;1-408, del471-544||)
T2 sequence 1: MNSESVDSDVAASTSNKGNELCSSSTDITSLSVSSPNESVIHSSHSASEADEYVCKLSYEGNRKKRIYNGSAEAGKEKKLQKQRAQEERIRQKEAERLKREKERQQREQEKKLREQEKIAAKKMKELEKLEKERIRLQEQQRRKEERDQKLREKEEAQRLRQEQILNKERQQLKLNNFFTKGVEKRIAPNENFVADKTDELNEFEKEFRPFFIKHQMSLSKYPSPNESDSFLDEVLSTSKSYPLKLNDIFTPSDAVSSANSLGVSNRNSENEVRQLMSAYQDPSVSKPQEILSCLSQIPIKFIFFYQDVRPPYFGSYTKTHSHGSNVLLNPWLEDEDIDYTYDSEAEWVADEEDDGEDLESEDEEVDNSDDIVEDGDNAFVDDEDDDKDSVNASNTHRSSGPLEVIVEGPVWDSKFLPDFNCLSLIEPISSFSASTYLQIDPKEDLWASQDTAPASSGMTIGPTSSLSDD
T2 sequence 2: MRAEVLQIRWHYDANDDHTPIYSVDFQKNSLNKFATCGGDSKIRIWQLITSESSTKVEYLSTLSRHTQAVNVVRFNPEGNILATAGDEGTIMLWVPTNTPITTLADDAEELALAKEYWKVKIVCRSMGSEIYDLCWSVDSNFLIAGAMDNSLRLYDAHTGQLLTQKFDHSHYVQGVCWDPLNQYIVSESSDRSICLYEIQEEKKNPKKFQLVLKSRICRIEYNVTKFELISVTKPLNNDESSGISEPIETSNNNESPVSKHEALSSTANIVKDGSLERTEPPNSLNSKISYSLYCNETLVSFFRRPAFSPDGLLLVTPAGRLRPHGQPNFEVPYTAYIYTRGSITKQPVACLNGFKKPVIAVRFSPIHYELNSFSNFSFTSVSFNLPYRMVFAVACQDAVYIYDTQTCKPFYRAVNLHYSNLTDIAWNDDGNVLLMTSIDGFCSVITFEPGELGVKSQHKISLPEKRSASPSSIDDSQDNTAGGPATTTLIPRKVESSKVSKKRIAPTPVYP
T2 sequence 3: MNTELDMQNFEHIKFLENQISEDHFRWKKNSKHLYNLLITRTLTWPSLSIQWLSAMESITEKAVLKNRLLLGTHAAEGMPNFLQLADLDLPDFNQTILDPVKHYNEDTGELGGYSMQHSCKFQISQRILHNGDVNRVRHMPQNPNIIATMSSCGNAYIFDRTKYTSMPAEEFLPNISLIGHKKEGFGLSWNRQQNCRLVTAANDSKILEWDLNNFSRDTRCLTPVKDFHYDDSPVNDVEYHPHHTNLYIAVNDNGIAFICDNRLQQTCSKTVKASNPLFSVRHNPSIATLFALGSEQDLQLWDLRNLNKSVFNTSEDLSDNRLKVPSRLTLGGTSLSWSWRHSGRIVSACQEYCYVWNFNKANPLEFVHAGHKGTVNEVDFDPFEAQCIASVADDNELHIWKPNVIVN

Pcf1_KER = molecular target: T3, Pcf1_KER (Schizosaccharomyces pombe, UniProt Q1MTN9 56-170)
T3 sequence: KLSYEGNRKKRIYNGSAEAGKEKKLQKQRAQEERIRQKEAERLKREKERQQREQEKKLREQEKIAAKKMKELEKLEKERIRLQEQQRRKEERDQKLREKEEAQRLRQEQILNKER

Pcf1_KER* = molecular target: T4, Pcf1_KER* (Schizosaccharomyces pombe, UniProt Q1MTN9 56-170, R147E;K150E;K154E;R161E;K168E)
T4 sequence: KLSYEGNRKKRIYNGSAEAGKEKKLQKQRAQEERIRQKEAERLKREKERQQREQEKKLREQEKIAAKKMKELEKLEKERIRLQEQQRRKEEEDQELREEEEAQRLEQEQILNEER

B1: 40 bp dsDNA, Alexa488 (dsDNA)
DNA 1: ATCAATATCCACCTGCAGATACTACCAAAAGTGTATTTGG
DNA 2: CCAAATACACTTTTGGTAGTATCTGCAGGTGGATATTGAT
For B1, the “apparent K (half saturation)” value (Pcf1 WT;Pcf2;Pcf3) was 700 ± 100 nM, the “apparent K (half saturation)” value (Pcf1-ΔWHD;Pcf2;Pcf3) was 700 ± 100 nM and the “apparent K (half saturation)” value (Pcf1_KER) was 1100 ± 200 nM. The “apparent K (half saturation)” value (Pcf1_KER*) was 12.2 ± 0.7 µM.
